Article PMC11780864, “RNA G-quadruplex structure-based PROTACs for targeted DHX36 protein degradation and gene activity modulation in mammalian cells”

Biological target: T1, DHX36 (RHAU) (UniProt Q9H2U1 1-1008)
T1 sequence: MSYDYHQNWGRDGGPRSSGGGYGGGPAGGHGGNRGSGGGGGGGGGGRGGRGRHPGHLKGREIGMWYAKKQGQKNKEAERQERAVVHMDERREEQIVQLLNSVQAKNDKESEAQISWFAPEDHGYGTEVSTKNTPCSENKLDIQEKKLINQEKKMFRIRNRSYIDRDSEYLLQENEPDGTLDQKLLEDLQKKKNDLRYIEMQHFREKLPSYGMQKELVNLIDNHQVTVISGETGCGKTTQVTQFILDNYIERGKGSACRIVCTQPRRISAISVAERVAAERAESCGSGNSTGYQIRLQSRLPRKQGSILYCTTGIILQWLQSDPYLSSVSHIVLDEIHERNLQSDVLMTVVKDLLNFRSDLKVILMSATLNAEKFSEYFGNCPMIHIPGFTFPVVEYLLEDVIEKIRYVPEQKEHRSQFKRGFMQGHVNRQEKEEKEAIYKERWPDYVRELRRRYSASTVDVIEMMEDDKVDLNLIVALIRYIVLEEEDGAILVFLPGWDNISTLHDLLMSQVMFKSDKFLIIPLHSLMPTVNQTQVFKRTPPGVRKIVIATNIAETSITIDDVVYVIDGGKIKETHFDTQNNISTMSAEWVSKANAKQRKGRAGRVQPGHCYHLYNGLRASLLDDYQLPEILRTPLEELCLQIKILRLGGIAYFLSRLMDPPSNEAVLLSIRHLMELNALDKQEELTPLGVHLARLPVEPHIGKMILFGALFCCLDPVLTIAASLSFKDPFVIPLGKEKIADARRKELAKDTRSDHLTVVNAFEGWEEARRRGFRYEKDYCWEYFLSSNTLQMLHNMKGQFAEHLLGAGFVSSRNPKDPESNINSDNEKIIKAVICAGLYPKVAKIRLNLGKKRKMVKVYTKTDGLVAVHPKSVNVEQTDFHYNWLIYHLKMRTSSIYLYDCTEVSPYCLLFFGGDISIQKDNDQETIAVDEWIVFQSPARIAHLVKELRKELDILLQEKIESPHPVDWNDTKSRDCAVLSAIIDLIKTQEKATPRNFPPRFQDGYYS
Experiment: MST; EMSA and MST: 25 mM Tris-HCl pH 7.5, 150 mM KCl, 1 mM MgCl2, 37 C 30 min; 30 nM (EMSA) or 40 nM (MST) FAM-oligo; EMSA gel 10% native PAGE, 0.5x TBE, 4 C
Details: protein: recombinant; for Kd: G4

CGGGGCGGGUGGGGAGGGGU (structured_RNA, printed with T although called rG4) [FAM_APP rG4 WT]
Kd (label: 5'-FAM): 19.7 ± 2.3 nM

GAGCCGGCGGUGAGAGCGGAGUGAGUCGAACGAAG (ssRNA) [FAM_Gnai2 rG4 Mut]
binding result (label: 5'-FAM, non-G4): no binding

GGGCCGGCGGUGGGAGCGGAGUGGGUCGGGCGGGG (structured_RNA) [FAM_Gnai2 rG4 WT]
Kd (label: 5'-FAM): 37.9 ± 3.6 nM

TTGGGTGGGTGGGTGGGT (structured_DNA, 5'-hexynyl clicked to AHPC-PEG2) [FAM_dG4_A (T95-2T)]
Kd (label: 3'-FAM): 303 ± 55 nM

GGGUUGCGGAGGGUGGGCCU (structured_RNA, 5'-hexynyl clicked to AHPC-PEG2 (VHL ligand)) [FAM_rG4_A_PEG2 (FAM_rG4_A)]
Kd (label: 3'-FAM): 79.7 ± 17.3 nM
